According to patent publication US20060234294A1 (JAPAN SCIENCE AND TECHNOLOGY AGENCY, published 2006):

What was measured:
Assay in all cases: co-immunoprecipitation from 293T cells: anti-HA IP, anti-V5 Western blot
[1] = biological target: T1, Tiam1 with HA tag at its C terminus (PCI Tiam1-HA) (mouse, UniProt Q60610 1-1591, limits assumed)
T1 construct: Expressed in 293T cells from the PCI vector; also called mouse Tiam1

[2] = biological target: T2, full length DOCK2 with HA tag at the C terminus (PcDNA DOCK2-HA) (mouse, UniProt Q8C3J5 1-1828)
T2 construct: Expressed in 293T cells from PcDNA/His max vector and tested in cell lysate by co-immunoprecipitation; also called Hch; mouse DOCK2

[3] = biological target: T3, DOCK2ΔN-HA (amino acid residue 505-1828 of DOCK2, HA tag at the C terminus) (mouse, UniProt Q8C3J5 505-1828)
T3 construct: Expressed in 293T cells; also called PcDNA DOCK2ΔN-HA

[4] = biological target: T4, DOCK2 SH3 mutant P60E-HA (mouse, UniProt Q8C3J5 1-1828)
T4 construct: Proline at position 60 of DOCK2 is substituted to glutamic acid; HA tag at the C terminus; Expressed in 293T cells; also called PcDNA P60E-HA

[5] = biological target: T5, DOCK2 SH3 mutant F63E-HA (mouse, UniProt Q8C3J5 1-1828)
T5 construct: Phenylalanine at position 63 of DOCK2 is substituted to glutamic acid; HA tag at the C terminus; Expressed in 293T cells; also called PcDNA F63E-HA

[6] = biological target: T6, DOCK2 SH3 mutant G32E-HA (mouse, UniProt Q8C3J5 1-1828)
T6 construct: Glycine at position 32 of DOCK2 is substituted to glutamic acid; HA tag at the C terminus; Expressed in 293T cells; also called PcDNA G32E-HA
T6 sequence (Q8C3J5 other isoform, or with tags, fused parts or gaps G32E G32E limits assumed): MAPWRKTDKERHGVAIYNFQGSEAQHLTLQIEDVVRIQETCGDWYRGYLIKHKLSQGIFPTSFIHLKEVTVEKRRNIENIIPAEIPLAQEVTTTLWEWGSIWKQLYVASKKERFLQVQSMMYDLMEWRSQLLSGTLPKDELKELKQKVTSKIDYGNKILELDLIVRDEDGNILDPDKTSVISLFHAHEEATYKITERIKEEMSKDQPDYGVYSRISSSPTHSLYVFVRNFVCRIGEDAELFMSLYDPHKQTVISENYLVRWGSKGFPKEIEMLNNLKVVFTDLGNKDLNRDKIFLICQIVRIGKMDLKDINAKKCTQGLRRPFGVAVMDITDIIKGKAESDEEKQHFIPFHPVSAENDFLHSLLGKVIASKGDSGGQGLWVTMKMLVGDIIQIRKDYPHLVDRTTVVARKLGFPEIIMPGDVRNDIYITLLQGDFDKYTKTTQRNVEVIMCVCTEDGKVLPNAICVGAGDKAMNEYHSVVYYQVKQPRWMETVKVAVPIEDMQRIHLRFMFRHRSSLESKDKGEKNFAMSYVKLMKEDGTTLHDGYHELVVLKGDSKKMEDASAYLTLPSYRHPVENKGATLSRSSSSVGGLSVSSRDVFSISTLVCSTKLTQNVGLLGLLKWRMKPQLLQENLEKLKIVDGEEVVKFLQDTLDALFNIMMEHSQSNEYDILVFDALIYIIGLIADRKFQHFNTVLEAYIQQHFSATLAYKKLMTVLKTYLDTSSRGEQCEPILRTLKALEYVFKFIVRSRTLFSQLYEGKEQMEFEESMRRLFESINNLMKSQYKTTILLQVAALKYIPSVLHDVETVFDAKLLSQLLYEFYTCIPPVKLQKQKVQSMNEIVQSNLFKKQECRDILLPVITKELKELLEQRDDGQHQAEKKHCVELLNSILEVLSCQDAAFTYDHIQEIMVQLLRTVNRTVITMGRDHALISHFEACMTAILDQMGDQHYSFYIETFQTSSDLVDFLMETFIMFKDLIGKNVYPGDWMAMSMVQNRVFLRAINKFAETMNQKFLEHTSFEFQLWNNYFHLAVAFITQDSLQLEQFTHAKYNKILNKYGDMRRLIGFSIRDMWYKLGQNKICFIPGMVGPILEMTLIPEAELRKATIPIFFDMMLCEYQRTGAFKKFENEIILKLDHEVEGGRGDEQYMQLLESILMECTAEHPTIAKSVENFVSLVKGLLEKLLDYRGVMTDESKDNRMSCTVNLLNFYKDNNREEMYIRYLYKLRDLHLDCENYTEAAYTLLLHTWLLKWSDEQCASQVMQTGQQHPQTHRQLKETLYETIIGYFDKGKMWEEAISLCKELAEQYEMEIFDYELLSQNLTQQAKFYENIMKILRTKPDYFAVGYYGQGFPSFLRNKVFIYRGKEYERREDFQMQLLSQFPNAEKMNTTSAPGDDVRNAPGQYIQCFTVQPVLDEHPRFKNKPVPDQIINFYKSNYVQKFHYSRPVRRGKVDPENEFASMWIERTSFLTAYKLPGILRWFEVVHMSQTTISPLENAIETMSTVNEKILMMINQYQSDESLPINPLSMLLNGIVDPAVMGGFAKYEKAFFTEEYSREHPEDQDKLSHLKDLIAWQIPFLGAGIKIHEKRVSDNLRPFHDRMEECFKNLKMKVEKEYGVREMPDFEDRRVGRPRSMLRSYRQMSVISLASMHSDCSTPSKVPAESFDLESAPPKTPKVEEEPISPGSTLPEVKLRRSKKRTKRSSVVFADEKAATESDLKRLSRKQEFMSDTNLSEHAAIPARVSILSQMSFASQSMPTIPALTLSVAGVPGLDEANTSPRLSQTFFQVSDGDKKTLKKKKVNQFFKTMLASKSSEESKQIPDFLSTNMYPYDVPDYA

T1 sequence (Q60610 other isoform, or with tags, fused parts or gaps limits assumed): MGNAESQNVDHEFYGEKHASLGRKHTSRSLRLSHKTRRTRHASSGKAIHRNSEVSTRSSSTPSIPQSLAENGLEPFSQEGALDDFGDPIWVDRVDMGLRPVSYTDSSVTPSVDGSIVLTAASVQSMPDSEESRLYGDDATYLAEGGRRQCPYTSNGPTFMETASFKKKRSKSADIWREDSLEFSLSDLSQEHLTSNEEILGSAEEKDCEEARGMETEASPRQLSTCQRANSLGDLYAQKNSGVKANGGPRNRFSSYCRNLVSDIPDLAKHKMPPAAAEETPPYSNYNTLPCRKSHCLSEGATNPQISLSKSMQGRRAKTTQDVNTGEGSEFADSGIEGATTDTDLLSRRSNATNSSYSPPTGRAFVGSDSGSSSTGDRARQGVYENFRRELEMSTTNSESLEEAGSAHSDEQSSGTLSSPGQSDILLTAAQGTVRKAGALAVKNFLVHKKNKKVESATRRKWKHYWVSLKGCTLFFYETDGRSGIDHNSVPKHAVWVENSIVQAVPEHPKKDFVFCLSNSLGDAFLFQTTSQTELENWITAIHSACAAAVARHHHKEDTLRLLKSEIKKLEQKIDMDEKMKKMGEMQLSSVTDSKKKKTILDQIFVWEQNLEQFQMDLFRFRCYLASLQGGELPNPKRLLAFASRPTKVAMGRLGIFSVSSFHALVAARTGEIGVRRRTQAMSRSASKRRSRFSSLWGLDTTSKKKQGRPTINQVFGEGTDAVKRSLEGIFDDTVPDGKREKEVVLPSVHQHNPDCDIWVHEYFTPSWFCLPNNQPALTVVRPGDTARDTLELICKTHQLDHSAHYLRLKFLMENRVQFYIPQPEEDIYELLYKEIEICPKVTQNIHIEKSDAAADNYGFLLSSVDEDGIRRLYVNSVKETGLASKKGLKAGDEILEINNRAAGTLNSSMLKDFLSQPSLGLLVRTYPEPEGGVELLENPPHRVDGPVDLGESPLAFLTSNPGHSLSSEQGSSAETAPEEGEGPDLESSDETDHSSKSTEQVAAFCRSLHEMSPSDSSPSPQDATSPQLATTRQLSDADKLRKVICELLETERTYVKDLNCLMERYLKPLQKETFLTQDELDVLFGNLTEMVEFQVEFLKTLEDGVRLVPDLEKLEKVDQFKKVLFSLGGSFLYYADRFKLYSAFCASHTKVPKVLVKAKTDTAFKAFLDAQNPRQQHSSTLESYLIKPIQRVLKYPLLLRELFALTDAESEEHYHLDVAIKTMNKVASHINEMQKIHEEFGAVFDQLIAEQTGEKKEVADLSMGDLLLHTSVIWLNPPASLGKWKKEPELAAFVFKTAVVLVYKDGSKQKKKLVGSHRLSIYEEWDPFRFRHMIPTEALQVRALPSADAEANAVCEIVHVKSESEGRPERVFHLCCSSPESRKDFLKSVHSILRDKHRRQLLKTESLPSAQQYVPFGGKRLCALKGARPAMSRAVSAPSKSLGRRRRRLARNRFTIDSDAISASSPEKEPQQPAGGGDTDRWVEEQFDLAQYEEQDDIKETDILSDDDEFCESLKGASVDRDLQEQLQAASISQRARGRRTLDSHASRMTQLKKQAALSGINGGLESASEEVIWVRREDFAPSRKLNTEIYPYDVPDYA
T4 sequence (Q8C3J5 other isoform, or with tags, fused parts or gaps P60E P60E limits assumed): as the sequence (Q8C3J5 other isoform, or with tags, fused parts or gaps G32E G32E limits assumed) above, with E32G, P60E counted along it
T5 sequence (Q8C3J5 other isoform, or with tags, fused parts or gaps F63E F63E limits assumed): as the sequence (Q8C3J5 other isoform, or with tags, fused parts or gaps G32E G32E limits assumed) above, with E32G, F63E counted along it
T3 sequence (Q8C3J5 other isoform, or with tags, fused parts or gaps mutant): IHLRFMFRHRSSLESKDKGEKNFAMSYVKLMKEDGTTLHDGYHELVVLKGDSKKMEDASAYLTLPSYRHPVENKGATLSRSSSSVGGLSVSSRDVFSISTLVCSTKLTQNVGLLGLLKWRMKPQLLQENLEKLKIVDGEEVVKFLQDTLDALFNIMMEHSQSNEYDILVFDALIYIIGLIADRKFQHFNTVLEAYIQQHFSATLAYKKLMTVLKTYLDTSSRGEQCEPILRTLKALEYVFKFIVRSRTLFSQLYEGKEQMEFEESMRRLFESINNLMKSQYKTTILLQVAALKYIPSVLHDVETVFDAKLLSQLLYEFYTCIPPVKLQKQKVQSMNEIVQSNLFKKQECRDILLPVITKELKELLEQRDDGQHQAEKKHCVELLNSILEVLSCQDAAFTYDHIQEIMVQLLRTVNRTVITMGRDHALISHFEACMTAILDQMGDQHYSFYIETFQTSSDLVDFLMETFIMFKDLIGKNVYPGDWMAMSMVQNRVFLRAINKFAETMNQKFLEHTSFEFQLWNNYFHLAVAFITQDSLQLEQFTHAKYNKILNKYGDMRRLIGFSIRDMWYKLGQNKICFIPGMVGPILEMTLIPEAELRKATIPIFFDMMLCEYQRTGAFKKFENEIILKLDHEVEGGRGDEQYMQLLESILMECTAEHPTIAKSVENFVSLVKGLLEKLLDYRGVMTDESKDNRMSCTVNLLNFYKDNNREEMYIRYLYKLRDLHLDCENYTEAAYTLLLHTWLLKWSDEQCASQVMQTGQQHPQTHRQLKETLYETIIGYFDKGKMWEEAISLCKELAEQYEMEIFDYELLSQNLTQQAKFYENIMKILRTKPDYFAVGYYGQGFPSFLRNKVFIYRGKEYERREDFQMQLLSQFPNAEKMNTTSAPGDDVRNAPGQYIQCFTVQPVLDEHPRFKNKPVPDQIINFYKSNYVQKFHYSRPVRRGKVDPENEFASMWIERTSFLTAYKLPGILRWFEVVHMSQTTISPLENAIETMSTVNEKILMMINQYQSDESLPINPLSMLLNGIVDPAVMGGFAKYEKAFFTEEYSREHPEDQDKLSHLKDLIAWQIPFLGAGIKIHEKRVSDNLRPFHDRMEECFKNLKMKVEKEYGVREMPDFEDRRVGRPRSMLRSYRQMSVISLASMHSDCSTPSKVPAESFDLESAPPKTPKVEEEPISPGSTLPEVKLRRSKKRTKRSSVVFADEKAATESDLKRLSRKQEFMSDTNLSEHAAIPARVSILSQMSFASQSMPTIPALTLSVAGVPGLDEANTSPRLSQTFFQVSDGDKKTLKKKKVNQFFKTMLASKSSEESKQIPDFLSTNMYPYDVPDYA
T2 sequence (Q8C3J5 other isoform, or with tags, fused parts or gaps limits assumed): as the sequence (Q8C3J5 other isoform, or with tags, fused parts or gaps G32E G32E limits assumed) above, with E32G counted along it

B1: ELMO1-del1-V5 (amino acid residues 147-727 of ELMO1) (other)
chain: MKPCFGDMLSFTLTAFVELMDHGIVSWDTFSVAFIKKIASFVNKSAIDISILQRSLAILESMVLNSHDLYQKVAQEITIGQLIPHLQGTDQEIQTYTIAVINALFLKAPDERRQEMANILAQKQLRYIILTHVIRAQRAINNEMAHQLYVLQVLTFNLLEDRMMTKMDPQDQAQRDIIFELRRIAFDAESEPNNSSGSMEKRKSMYTRDYKKLGFINHVNPAMDFTQTPPGMLALDNMLYFAKHHQDAYIRIVLENSSREDKHECPFGRSSIELTKMLCEILKVGELPSETCNDFHPMFFTHDRSFEEFFCICIQLLNKTWKEMRATSEDFNKVMQVVKEQVMRALTTKPSSLDQFKSKLQNLSYTEILKIRQSERMNQEDFQSRPILELKEKIQPEILELIKQQRLNRLVEGTCFRKLNARRRQDKFWYCRLSPNHKVLHYGDLEESPQGEVPHDSLQDKLPVADIKAVVTGKDCPHMKEKGALKQNKEVLELAFSILYDSNCQLNFIAPDKHEYCIWTDGLNALLGKDMMSDLTRNDLDTLLSMEIKLRLLDLENIQIPDAPPPIPKEPSNYDFVYDCN
notes: Expressed in 293T cells; also called ELMO1-dell; PcDNA ELMO1-del1-V5; not shown: V5 (and His) tag from the PcDNA V5His vector
binding result [1]: no binding

B2: ELMO1-del10-V5 (amino acid residues 1-613 of ELMO1) (other)
chain: MPPPSDIVKVAIEWPGAYPKLMEIDQKKPLSAIIKEVCDGWSLANHEYFALQHADSSNFYITEKNRNEIKNGTILRLTTSPAQNAQQLHERIQSSSMDAKLEALKDLASLSRDVTFAQEFINLDGISLLTQMVESGTERYQKLQKIMKPCFGDMLSFTLTAFVELMDHGIVSWDTFSVAFIKKIASFVNKSAIDISILQRSLAILESMVLNSHDLYQKVAQEITIGQLIPHLQGTDQEIQTYTIAVINALFLKAPDERRQEMANILAQKQLRYIILTHVIRAQRAINNEMAHQLYVLQVLTFNLLEDRMMTKMDPQDQAQRDIIFELRRIAFDAESEPNNSSGSMEKRKSMYTRDYKKLGFINHVNPAMDFTQTPPGMLALDNMLYFAKHHQDAYIRIVLENSSREDKHECPFGRSSIELTKMLCEILKVGELPSETCNDFHPMFFTHDRSFEEFFCICIQLLNKTWKEMRATSEDFNKVMQVVKEQVMRALTTKPSSLDQFKSKLQNLSYTEILKIRQSERMNQEDFQSRPILELKEKIQPEILELIKQQRLNRLVEGTCFRKLNARRRQDKFWYCRLSPNHKVLHYGDLEESPQGEVPHDSLQDKLPVADI
notes: Expressed in 293T cells; also called PcDNA ELMO1-del10-V5; PcDNA ELMO1-del10; not shown: V5 (and His) tag from the PcDNA V5His vector
binding result [2]: no binding

B3: ELMO1-del8-V5 (amino acid residues 345-727 of ELMO1) (other)
chain: MEKRKSMYTRDYKKLGFINHVNPAMDFTQTPPGMLALDNMLYFAKHHQDAYIRIVLENSSREDKHECPFGRSSIELTKMLCEILKVGELPSETCNDFHPMFFTHDRSFEEFFCICIQLLNKTWKEMRATSEDFNKVMQVVKEQVMRALTTKPSSLDQFKSKLQNLSYTEILKIRQSERMNQEDFQSRPILELKEKIQPEILELIKQQRLNRLVEGTCFRKLNARRRQDKFWYCRLSPNHKVLHYGDLEESPQGEVPHDSLQDKLPVADIKAVVTGKDCPHMKEKGALKQNKEVLELAFSILYDSNCQLNFIAPDKHEYCIWTDGLNALLGKDMMSDLTRNDLDTLLSMEIKLRLLDLENIQIPDAPPPIPKEPSNYDFVYDCN
notes: Expressed in 293T cells; also called PcDNA ELMO1-del8-V5; not shown: V5 (and His) tag from the PcDNA V5His vector
binding result [1]: no binding

B4: full length ELMO1 with V5 tag (PcDNA ELMO1-V5) (other)
chain: MPPPSDIVKVAIEWPGAYPKLMEIDQKKPLSAIIKEVCDGWSLANHEYFALQHADSSNFYITEKNRNEIKNGTILRLTTSPAQNAQQLHERIQSSSMDAKLEALKDLASLSRDVTFAQEFINLDGISLLTQMVESGTERYQKLQKIMKPCFGDMLSFTLTAFVELMDHGIVSWDTFSVAFIKKIASFVNKSAIDISILQRSLAILESMVLNSHDLYQKVAQEITIGQLIPHLQGTDQEIQTYTIAVINALFLKAPDERRQEMANILAQKQLRYIILTHVIRAQRAINNEMAHQLYVLQVLTFNLLEDRMMTKMDPQDQAQRDIIFELRRIAFDAESEPNNSSGSMEKRKSMYTRDYKKLGFINHVNPAMDFTQTPPGMLALDNMLYFAKHHQDAYIRIVLENSSREDKHECPFGRSSIELTKMLCEILKVGELPSETCNDFHPMFFTHDRSFEEFFCICIQLLNKTWKEMRATSEDFNKVMQVVKEQVMRALTTKPSSLDQFKSKLQNLSYTEILKIRQSERMNQEDFQSRPILELKEKIQPEILELIKQQRLNRLVEGTCFRKLNARRRQDKFWYCRLSPNHKVLHYGDLEESPQGEVPHDSLQDKLPVADIKAVVTGKDCPHMKEKGALKQNKEVLELAFSILYDSNCQLNFIAPDKHEYCIWTDGLNALLGKDMMSDLTRNDLDTLLSMEIKLRLLDLENIQIPDAPPPIPKEPSNYDFVYDCN
notes: Expressed in 293T cells; also called mouse ELMO1; not shown: V5 (and His) tag from the PcDNA V5-His vector
binding result [3]: no binding
binding result [4]: no binding
binding result [5]: no binding
binding result [6]: no binding
